Broadly, the Kd is the free concentration of one partner at which half of the binding sites on the other are occupied at equilibrium, for simple one-to-one binding. Read a low Kd as tighter binding.

The record followed here is PMC4266533, “Kinetics of the early events of GPCR signalling” (Febs Letters, 2014).

The target in experiment [1] is T1, FLAG-NTS1 (neurotensin receptor type 1) reconstituted into PC:PG nanodiscs, neurotensin-bound (UniProt P20789 1-424).
T1 construct: Neurotensin (NT), 13 amino acid peptide, agonist kept in excess (5 uM) with the receptor; The receptor stood in ~10 nm lipid nanodiscs with the belt protein MSP1D1 (Addgene plasmid 20061, made in E. coli BL21(DE3)); MSP1D1 is not written as a chain; Primarily one receptor per disc (50:1 MSP1D1:FLAG-NTS1); also called FLAG-NTS1-PC:PG nanodiscs; NTS1-nanodiscs
The experiment in a line: SPR; Gα amine-coupled to a CM5 chip (Biacore T100/T200); NT-bound (5 uM NT) anti-FLAG-enriched FLAG-NTS1-PC:PG nanodiscs as analyte, serially diluted from 660 nM or 400 nM; single cycle kinetics at 30-50 ul/min; empty nanodiscs as reference, double-referenced; 50 mM Tris-HCl pH 7.4, 100 mM NaCl, 5 mM MgCl2; heterogeneous ligand binding global fit. The conditions noted are these: both partners purified.

For experiment [2], the target named is T1, FLAG-NTS1 (neurotensin receptor type 1) …. In words: SPR; FLAG-NTS1-PC:PG nanodiscs (2500 RU) captured on an L1 chip, empty PC:PG nanodiscs (2000 RU) in the reference cell; His6-Gs as analyte, 62.5-1000 nM, 150 s per concentration at 50 ul/min; 1:1 Langmuir and heterogeneous ligand binding fits. Conditions: both partners purified. On the technique in general: Surface plasmon resonance follows binding to a sensor surface in real time, without labels.

T1 sequence (P20789 whole entry): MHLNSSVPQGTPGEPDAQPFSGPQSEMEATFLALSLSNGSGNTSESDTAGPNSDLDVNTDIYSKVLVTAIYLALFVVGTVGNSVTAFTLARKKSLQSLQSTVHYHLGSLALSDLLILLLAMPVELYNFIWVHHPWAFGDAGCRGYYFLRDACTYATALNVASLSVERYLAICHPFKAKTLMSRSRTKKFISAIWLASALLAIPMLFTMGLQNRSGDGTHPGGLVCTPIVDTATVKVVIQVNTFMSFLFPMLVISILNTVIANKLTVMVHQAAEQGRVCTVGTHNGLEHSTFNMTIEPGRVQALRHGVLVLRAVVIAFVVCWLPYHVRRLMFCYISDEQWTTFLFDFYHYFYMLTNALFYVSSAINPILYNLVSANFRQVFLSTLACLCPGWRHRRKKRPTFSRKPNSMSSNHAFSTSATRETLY

B1: His6-Gαs (alpha subunit of the stimulatory G protein Gs) (natural protein, UniProt P63092 1-394, looked up)
chain: MGCLGNSKTEDQRNEEKAQREANKKIEKQLQKDKQVYRATHRLLLLGAGESGKSTIVKQMRILHVNGFNGEGGEEDPQAARSNSDGEKATKVQDIKNNLKEAIETIVAAMSNLVPPVELANPENQFRVDYILSVMNVPDFDFPPEFYEHAKALWEDEGVRACYERSNEYQLIDCAQYFLDKIDVIKQADYVPSDQDLLRCRVLTSGIFETKFQVDKVNFHMFDVGGQRDERRKWIQCFNDVTAIIFVVASSSYNMVIREDNQTNRLQEALNLFKSIWNNRWLRTISVILFLNKQDLLAEKVLAGKSKIEDYFPEFARYTTPEDATPEPGEDPRVTRAKYFIRDEFLRISTASGDGRHYCYPHFTCAVDTENIRRVFNDCRDIIQRMHLRQYELL
notes: Alpha subunit of Gs; construct donated by Renaud Wagner (University of Strasbourg); Also tested with GTPγS (same protein, assay a2); also called His6-Gs; His-Gαs
On to B1, for which the Kd in experiment [1] turned out to be 9 nM; in experiment [2] it was 65 nM.
